Data reported in PMC4787601.

Molecular target: phospholamban peptide, first 21 amino acids, wild type (UniProt P26678)
Assay: SPR

Chain of UniProt P26678 (P26678 1-21): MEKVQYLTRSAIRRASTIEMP

Work on “purified AKAP7γ (from UniProt Q9P0M2 1-348) (natural protein)” yielded a Kd of 13.3 nM.
